Publication PMC6703689, “The heterogeneous nuclear ribonucleoprotein hnRNPM inhibits RNA virus-triggered innate immunity by antagonizing RNA sensing of RIG-I-like receptors” (PLoS Pathogens, 2019)
Values belong to the molecule of their own block, whether it stands above or below them.

Experiments:
[1] = system: Flag-RIG-I; assay: MST; settings: MST: PBS with 100 mM Tris-HCl pH 8.8, 20 nM Cy5-dsRNA, 25 C, GST as negative control, pull-down: HEK293 lysate, biotinylated RNA, streptavidin beads
[2] = system: GST-hnRNPM (human); assay: MST; settings: MST: PBS with 100 mM Tris-HCl pH 8.8, 20 nM Cy5-dsRNA, 25 C, GST as negative control; pull-down: HEK293 lysate, biotinylated RNA, streptavidin beads
[3] = system: GST-MDA5(280-1025); assay: MST; settings: MST: PBS with 100 mM Tris-HCl pH 8.8, 20 nM Cy5-dsRNA, 25 C, GST as negative control, pull-down: HEK293 lysate, biotinylated RNA, streptavidin beads
[4] = molecular target: T1, Flag-RIG-I, purified from transfected HEK293 cells (human, UniProt O95786 1-925); assay: pull-down; purified recombinant proteins incubated in PBS with RNase I at 4°C for 3 hours, then immunoprecipitated with anti-MDA5 and protein G beads or with anti-Flag affinity gel at 4°C for 2 hours; immunoblots; settings: both partners purified
T1 construct: RIG-I, human; Flag-RIG-I plasmid; also called Flag-tagged RIG-I; recombinant RIG-I
T1 sequence (looked up): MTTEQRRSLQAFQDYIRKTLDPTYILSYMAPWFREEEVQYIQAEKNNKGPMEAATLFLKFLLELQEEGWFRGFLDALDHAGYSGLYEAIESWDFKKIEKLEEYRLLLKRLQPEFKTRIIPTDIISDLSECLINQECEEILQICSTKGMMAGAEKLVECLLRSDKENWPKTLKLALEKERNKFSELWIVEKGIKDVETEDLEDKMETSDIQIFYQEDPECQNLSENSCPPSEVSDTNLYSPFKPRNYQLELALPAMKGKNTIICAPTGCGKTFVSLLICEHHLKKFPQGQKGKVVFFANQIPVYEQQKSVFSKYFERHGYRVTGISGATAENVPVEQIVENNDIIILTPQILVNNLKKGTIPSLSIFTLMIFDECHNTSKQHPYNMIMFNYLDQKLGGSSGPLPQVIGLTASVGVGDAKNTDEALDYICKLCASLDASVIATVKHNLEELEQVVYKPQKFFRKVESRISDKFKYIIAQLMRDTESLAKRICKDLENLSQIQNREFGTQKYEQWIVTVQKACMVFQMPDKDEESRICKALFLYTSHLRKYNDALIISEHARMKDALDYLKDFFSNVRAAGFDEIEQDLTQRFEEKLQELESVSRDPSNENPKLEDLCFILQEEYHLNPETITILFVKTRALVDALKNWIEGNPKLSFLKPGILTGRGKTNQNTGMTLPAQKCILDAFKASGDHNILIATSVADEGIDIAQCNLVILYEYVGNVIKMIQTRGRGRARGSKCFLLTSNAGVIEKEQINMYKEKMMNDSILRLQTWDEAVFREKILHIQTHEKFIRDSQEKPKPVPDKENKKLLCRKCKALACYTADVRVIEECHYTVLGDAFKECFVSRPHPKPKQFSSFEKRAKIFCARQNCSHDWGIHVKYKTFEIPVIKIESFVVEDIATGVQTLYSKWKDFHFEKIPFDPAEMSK

[5] = molecular target: T2, recombinant MDA5 (280-1,025) (pGEX6p-1-GST-MDA5 (280-1025)) (human, UniProt Q9BYX4 280-1025); assay: as above; settings: both partners purified
T2 construct: MDA5, human, residues 280-1025; cloned in pGEX-6p-1; No cleavage of GST is told; the MST methods call the same preparation GST-MDA5; source: E. coli BL21, purified (GST resins, eluted with reduced glutathione)
T2 sequence (looked up): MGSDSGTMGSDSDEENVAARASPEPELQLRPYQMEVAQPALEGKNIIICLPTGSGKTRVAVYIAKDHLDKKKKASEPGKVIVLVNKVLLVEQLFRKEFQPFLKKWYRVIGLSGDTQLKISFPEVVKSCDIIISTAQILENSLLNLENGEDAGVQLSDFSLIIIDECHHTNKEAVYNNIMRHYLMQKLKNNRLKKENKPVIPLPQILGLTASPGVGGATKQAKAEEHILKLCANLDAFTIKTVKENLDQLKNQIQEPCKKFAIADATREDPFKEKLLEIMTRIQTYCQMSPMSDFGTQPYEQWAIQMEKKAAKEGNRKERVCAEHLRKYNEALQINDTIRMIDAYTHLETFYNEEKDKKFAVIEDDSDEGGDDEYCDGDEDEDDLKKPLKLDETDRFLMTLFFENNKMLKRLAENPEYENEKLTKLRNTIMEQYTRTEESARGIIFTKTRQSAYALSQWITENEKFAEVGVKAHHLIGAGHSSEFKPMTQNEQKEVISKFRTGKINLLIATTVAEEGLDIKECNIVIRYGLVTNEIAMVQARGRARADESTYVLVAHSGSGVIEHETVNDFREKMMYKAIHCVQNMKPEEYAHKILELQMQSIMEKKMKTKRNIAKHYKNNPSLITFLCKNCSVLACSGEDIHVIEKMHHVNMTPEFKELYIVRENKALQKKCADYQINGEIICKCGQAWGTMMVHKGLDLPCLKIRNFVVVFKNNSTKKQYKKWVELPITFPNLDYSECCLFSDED

Molecule: 25 bp dsRNA
Kd [1]: 69 nM | binding signal (fold decrease of affinity) ([1]; recombinant hnRNPM present): 10 | Kd [2]: 22.1 nM | Kd [3]: 131 nM | binding signal (fold decrease of affinity) ([3]; recombinant hnRNPM present): 3

binding result [4]: binds | binding result [5]: binds
B1: recombinant hnRNPM (pGEX6p-1-GST-hnRNPM) (natural protein, human, UniProt P52272 1-730, looked up)
chain: MAAGVEAAAEVAATEIKMEEESGAPGVPSGNGAPGPKGEGERPAQNEKRKEKNIKRGGNRFEPYANPTKRYRAFITNIPFDVKWQSLKDLVKEKVGEVTYVELLMDAEGKSRGCAVVEFKMEESMKKAAEVLNKHSLSGRPLKVKEDPDGEHARRAMQKVMATTGGMGMGPGGPGMITIPPSILNNPNIPNEIIHALQAGRLGSTVFVANLDYKVGWKKLKEVFSMAGVVVRADILEDKDGKSRGIGTVTFEQSIEAVQAISMFNGQLLFDRPMHVKMDERALPKGDFFPPERPQQLPHGLGGIGMGLGPGGQPIDANHLNKGIGMGNIGPAGMGMEGIGFGINKMGGMEGPFGGGMENMGRFGSGMNMGRINEILSNALKRGEIIAKQGGGGGGGSVPGIERMGPGIDRLGGAGMERMGAGLGHGMDRVGSEIERMGLVMDRMGSVERMGSGIERMGPLGLDHMASSIERMGQTMERIGSGVERMGAGMGFGLERMAAPIDRVGQTIERMGSGVERMGPAIERMGLSMERMVPAGMGAGLERMGPVMDRMATGLERMGANNLERMGLERMGANSLERMGLERMGANSLERMGPAMGPALGAGIERMGLAMGGGGGASFDRAIEMERGNFGGSFAGSFGGAGGHAPGVARKACQIFVRNLPFDFTWKMLKDKFNECGHVLYADIKMENGKSKGCGVVKFESPEVAERACRMMNGMKLSGREIDVRIDRNA
notes: hnRNPM, human; cloned in pGEX-6p-1; No cleavage of GST is told; the MST methods call the same preparation GST-hnRNPM, so the tag was probably still on the protein in the pull-down; source: E. coli BL21, purified (GST resins, eluted with reduced glutathione)
